# Results taken from patent US20140179547A1 (NOVIMMUNE S A, published 2014).
# T1: human interferon gamma (hIFNγ) (human, UniProt P01579 24-166, limits assumed)
# T1 construct: also called INFγ
# T1 sequence (looked up): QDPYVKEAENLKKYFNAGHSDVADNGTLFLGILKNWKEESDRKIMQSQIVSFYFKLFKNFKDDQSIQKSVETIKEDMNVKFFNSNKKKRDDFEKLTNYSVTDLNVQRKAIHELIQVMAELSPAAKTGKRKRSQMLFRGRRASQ
# What was measured:
# [1] = molecular target: T1, human interferon gamma (hIFNγ); assay: SPR, Biacore 2000, IgG captured on anti-human IgG, antigen as analyte, 1:1 Langmuir fit
# Experimental: The affinity and binding kinetics of monospecific anti-INFγ IgGλ, the anti-IL6RC IgGκ and the bispecific IgGκλ antibodies were characterized on a Biacore 2000 instrument (Biacore AB, Uppsala, Sweden). 200RU of a goat anti-human polyclonal IgG (ahIgG; Biacore) were immobilized by EDC/NHS chemistry on a CM5 Biacore chip. This surface was used to capture monospecific or bispecific human IgG. The surface was regenerated after each cycle by injection of 10 mM glycine pH=1.5 at 30 μL/min, for 30 s followed by 1 min of stabilization time in HBS-EP buffer. […] Similar affinity values were obtained for the monospecific antibodies and the bispecific IgGκλ antibodies.
# [2] = molecular target: T1, human interferon gamma (hIFNγ); assay: SPR (Biacore), INFγ immobilised, IgG injected
# Experimental: (§1) FIGS. 12A and 12B are a series of illustrations and graphs depicting SPR analysis of IgGκλ bispecific antibodies. In FIG. 12A, INFγ was immobilized at the surface of the Biacore chip and anti-IL6RC monospecific antibody ([…]), anti-INFγ monospecific antibody (IgGλ) and, anti-IL6RC/anti-INFγ bispecific antibody (IgGκλ) were injected on the surface followed by injection of IL6RC. In FIG. 12B, the anti-IL6RC/anti-INFγ bispecific antibody (IgGκλ) was immobilized on the chip surface and anti human-Kappa and anti-human Lambda antibodies were injected at the same concentration. The experiment was repeated inverting the order of antibody injection with identical results.
# (§2) The capacity of the bispecific IgGκλ to interact with both targets simultaneously was tested by SPR. Biotinylated INFγ was immobilized on streptavidin coating CM5 Biacore chip. The monospecific and the bispecific antibodies were injected on this surface followed by injection of IL6RC. […] SPR was also used to assess the relative amounts of Kappa and Lambda light chains in the purified bispecific antibody. IgGκλ was directly immobilized via amine coupling on the surface of a CM5 Biacore chip and an anti-human CKappa antibody was injected followed by an anti-human CLambda antibody at the same concentration.
# [3] = molecular target: T2, hIL6 Receptor Complex (IL-6/IL-6R receptor complex) (human, UniProt P08887 20-358; P05231 30-212, limits assumed); assay: SPR (Biacore), INFγ immobilised, IgGλ injected, then IL6RC injected
# T2 construct: also called IL6RC; hIL6RC
# Experimental: as §1, §2
Binder,Kd [1] [nM],koff [1] [s⁻¹],kon [1] [M⁻¹ s⁻¹],binding result [2],binding result [3]
"anti-IL6RC/anti-INFγ bispecific IgGκλ antibody (bispecific antibody, also called κλ-body; κλ body) heavy: not shown light 1: not shown light 2: NFMLTQPHSVSESPGKTVTISCTRSSGSIASNYVQWYQQRPGSSPTTVIYEDNQRPSGVPDRFSGSIDSSSNSASLTISGLKTEDEADYYCQSQSWDGNHIVFGGGTKLTVLGQPKAAPSVTLFPPSSEELQANKATLVCLISDFYPGAVTVAWKADSSPVKAGVETTTPSKQSNNKYAASSYLSLTPEQWKSHRSYSCQVTHEGSTVEKTVAPTECS",0.184,0.000169,919000,,
"monospecific anti-IL6RC IgGκ antibody (antibody, V domains shown, also called IgGκκ; mono κ) VH: not shown VL: EIVLTQSPATLSLSPGERATLSCRASQSVSSYLAWYQQKPGQAPRLLIYDASNRATGIPARFSGSGSGTDFTLTISSLEPEDFAVYYCQQWLPTTPATFGQGTKVEIKR",,,,no binding,
"monospecific anti-INFγ IgGλ antibody (antibody, V domains shown, also called IgGλλ; mono λ) VH: not shown VL: NFMLTQPHSVSESPGKTVTISCTRSSGSIASNYVQWYQQRPGSSPTTVIYEDNQRPSGVPDRFSGSIDSSSNSASLTISGLKTEDEADYYCQSQSWDGNHIVFGGGTKLTVLG",0.196,0.000119,608000,,no binding
